Assay results from paper PMC4222082, “Nitrogen starvation-induced transcriptome alterations and influence of transcription regulator mutants in Mycobacterium smegmatis”.

How the values were obtained:
[1] = biological target: T1, MBP-GlnR (Mycobacterium smegmatis (SMR5?)) (UniProt A0R4C4); assay: EMSA; details: GlnR: DIG Gel Shift Kit (Roche) buffer, 6% native PAGE, 0.5x TBE; AmtR: 20 mM Tris-HCl pH 7.9, 25 mM KCl, 1 mM DTT, 5 mM MgCl2, 0.5 mg/ml BSA, 5% glycerol …
T1 sequence: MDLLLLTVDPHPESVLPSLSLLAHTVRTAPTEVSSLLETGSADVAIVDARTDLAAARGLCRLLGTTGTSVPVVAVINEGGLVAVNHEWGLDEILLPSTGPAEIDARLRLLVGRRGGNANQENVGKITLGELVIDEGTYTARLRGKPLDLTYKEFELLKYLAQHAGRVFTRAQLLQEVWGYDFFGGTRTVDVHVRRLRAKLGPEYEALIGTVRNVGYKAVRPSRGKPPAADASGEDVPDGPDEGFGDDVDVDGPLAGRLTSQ

MBP-GlnR [2] = biological target: T2, MBP-GlnR (Mycobacterium smegmatis, UniProt A0R4C4 1-261); assay: competition; 1000-fold excess vs fragment 6 probe; GlnR: DIG Gel Shift Kit (Roche) buffer, 6% native PAGE, 0.5x TBE; AmtR: 20 mM Tris-HCl pH 7.9, 25 mM KCl, 1 mM DTT, 5 mM MgCl2, 0.5 mg/ml BSA, 5% glycerol, 2 ug sperm DNA, 25 C 30 min; details: protein: recombinant; (pMal-c2-glnR); chain copies: 2
T2 sequence: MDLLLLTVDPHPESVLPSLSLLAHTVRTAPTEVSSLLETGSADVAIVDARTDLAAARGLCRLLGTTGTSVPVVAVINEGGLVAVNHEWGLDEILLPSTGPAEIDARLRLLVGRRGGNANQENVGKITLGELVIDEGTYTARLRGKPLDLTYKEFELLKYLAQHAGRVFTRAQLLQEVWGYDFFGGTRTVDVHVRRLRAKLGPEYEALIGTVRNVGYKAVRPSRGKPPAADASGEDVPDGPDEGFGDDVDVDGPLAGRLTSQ

MBP-GlnR [3] = biological target: T2, MBP-GlnR; assay: competition; 1000-fold excess vs 220 bp amtB probe; GlnR: DIG Gel Shift Kit (Roche) buffer, 6% native PAGE, 0.5x TBE; AmtR: 20 mM Tris-HCl pH 7.9, 25 mM KCl, 1 mM DTT, 5 mM MgCl2, 0.5 mg/ml BSA, 5% glycerol, 2 ug sperm DNA, 25 C 30 min; details: protein: recombinant; (pMal-c2-glnR); chain copies: 2; label: digoxigenin when used as probe

| Molecule | binding [1] | also measured |
| --- | --- | --- |
| GAACAACCTTTCCCGATGATTGCAGCGCATTTTGGGCCGATCGCCTCGGCCGCGGTGCAGGAGGTTAAACACACTGTGCTGGTGTCGAATCGGGACGTTAGAGCGCGCGTGTTACTGCCAAATGTCTGTGTGTGACGAACAAATTAACCTCGACATGACATGCCGCTGGTTTGCCGCCGGTTCTCGACGCCGTGACACCGGCGTGGCGTGTGTAACGGGGAGGTAGCCTGCGTCGATATG (double strand) [urtA upstream] | binds | – |
| GGTGCCGACCGCCCCGACGACGAGCGCGGCCACCGCCGCGACGAACCCGACCACCAGTCTGCGCACCGGGACATTGTTGCCCACGAGACCGGCAAAGATTCGCTCGGCGCGGCTGACGAGCAGGTGAGGCGTTATCCTCGTAACACCAAAGGCCGGTAACGGCTACATGTCAGTCATGAATCCGGAAGATCACCCGACACCGGCGTCTGTGTTCTCCCGCAGAGATTCCTGACGAGCCGGGAGGACTTG (double strand) [glnR upstream] | no binding | – |
| CATGTGCCACCGTCGCGGCACGCGCGCCGACGAGTTCGCGCGCAGCCGCGGGCAGTTCGGCCGTGGCGGCGCGCAGACCGGCCACCGAGGTCGCCGCGTCGATGTGGCGCTGCACGAGGTCGGGGGCGGGCATACCGGCGATTGTGACAGGCCCACGGGCGGTGAGGGTTCTGCAACCGAATGCTTACCGACGGCTACATGAACGAAACATTCGGGTGACGCCGAGGACACGCGCCCATTGTTATCTGTCATCTGACAGGTAAGAGCTGGCGGCAGCGCCCCTAGCCAGAGAGAAAACCC (double strand) [msmeg_2184 upstream (GlnR probe)] | binds | – |
| AGGCTTTTCGCCGGCTGCTGTGATCACACCAAGATCGTCGGCGCAGTCGATGACCTAGATGTTGTCGTGAAGTTTCAAGAATGTGACGTCATCAGTCGGCGGCTGCGTCGACCGCCAGCAGCAGTCGCAACGCGCCCGCATCGCGAGGGACTGCCGGGTCGAGGCCGGTACTGCTGGTCACCCTGGCCAGTCGGTTGATGACGGTGTTGCGATGGCAGTAGAGCCTGCGAGCGGTCTCGGTGACGGAACCGGTGTCGAGATAGATGCGCAGCGTGTCCGTGAGCAAGGTCTGATCGCGCG (double strand) [msmeg_3400 upstream] | binds | – |
| amtB fragment 6.1 (dsDNA) DNA 1: TGCGTTCACTTTCCGGAAACGCAAC DNA 2: GTTGCGTTTCCGGAAAGTGAACGCA | – | binding result (MBP-GlnR [2]): binds |
| amtB fragment 6 (dsDNA) DNA 1: TGCGTTCACTTTCCGGAAACGCAACGGCAGCACCGGCGAAACGCCGGCAA DNA 2: TTGCCGGCGTTTCGCCGGTGCTGCCGTTGCGTTTCCGGAAAGTGAACGCA | – | binding result (MBP-GlnR [3]): binds |
